The source of these data is paper PMC5458078, “Global mapping of CARM1 substrates defines enzyme specificity and substrate recognition” (Nature Communications, 2017).

For assay [1], the system named is BAF155, MED12, PABP1, NCOA3 and TET2. The experiment in a line: Co-immunoprecipitation of BAF155, MED12, PABP1, NCOA3 and TET2 with FLAG-tagged CARM1, western blot. Conditions: FLAG-tagged construct transiently transfected in HEK293T CARM1 KO cells; anti-FLAG IP. In kind it is cell-based. From the text:
The structure of the N-terminal domain of CARM1 (residues 28–140) resembles those of the EVH1 domains, a subfamily of PH domains that bind proline-rich sequences. With our discovery that CARM1 substrates contain proline-rich motifs, we posited that the protein's N-terminal domain may be required for substrate recognition. To test this hypothesis, we generated three CARM1 constructs: one full-length (CARM1 FL) and two N-terminal truncations CARM1 28–608 and CARM1 140–608 (Fig. 3a). […] We transiently transfected the three FLAG-tagged CARM1 fusion constructs in HEK293T CARM1 KO cells. CARM1 was immunoprecipitated from all three cell lines using anti-FLAG M2 resin, and four known CARM1 substrates/interactors (that is, BAF155 (ref. [20]), MED12 (ref. [30]), PABP1 (ref. [36]) and NCOA3 (ref. [19])) and newly identified TET2 were detected by western blotting. […] To globally assess the magnitude of reduction in CARM1–substrate interactions induced by the loss of the EVH1 domain, we visualized overall protein changes in CARM1 immunoprecipitates by western blotting using the ADMA antibody (Fig. 3c).
Cells were collected by trypsinization, washed with Dulbecco's phosphate buffer saline (Life Technologies, Carlsbad, CA) and lysed by suspension in lysis buffer (50 mM Tris-HCl pH 8.0, 150 mM NaCl, 10% glycerol, 0.5% Triton X-100 and 1 × protease inhibitor cocktail (Sigma-Aldrich)). After brief sonication followed by centrifugation, total protein was quantified using the BioRad Protein Assay (BioRad, Hercules, CA), and 20 μg protein was resolved by SDS–PAGE. Proteins were transferred to a nitrocellulose membrane for 1.5 h at 350 mA. Membranes were blocked with 5% nonfat milk at room temperature for 1 h and incubated overnight with diluted primary antibody at 4 °C. Membranes were then washed and incubated with HRP-conjugated secondary antibody for 1 h at room temperature. Signal was visualized by enhanced chemiluminescence reagents (Thermo Scientific, Rockford, IL) and X-ray film exposure followed by scanning and digitalization. […]
In general terms: Immunoblotting shows a protein as a band on a membrane.

The subject of assay [2] is GST fused MED12, BAF155 and PABP1 peptides. Description: In vitro methylation of GST fused peptides by recombinant CARM1 proteins, autoradiography. Conditions: 3H-SAM, 1–4 h, 30 °C; compared with CARM1 FL and CARM1 28–608. Format: biochemical. The procedure:
The FL and N-terminal domain-deleted version of human CARM1 cDNAs, and other PRMT FL cDNAs were cloned into pFN21K Halo Tag CMV Flexi mammalian expression vector (Promega, Madison, WI) using the unique Sgfl and Pmel site[55]. To express the protein, DNA constructs were transiently transfected into HEK293T CARM1 KO cells in 15 cm dishes using transIT-LT1 reagent (Mirus Bio, Madison, WI) according to the manufacturer's protocol. Proteins were allowed to express for 48 h. Cell pellets were then collected and lysed in lysis buffer (50 mM HEPES, pH 7.5, 150 mM NaCl, 0.005% NP-40, 0.5 mM EDTA, supplemented with 1 × protease inhibitor cocktail before use). The cells were sonicated on ice using a Branson Sonifier 450 with a microtip at 35% amplitude (10 s on, 30 s off, 6 cycles). The crude lysate was cleared by centrifugation (15,000 r.p.m., 4 °C, 20 min). […] The resin was centrifuged at 3,000 r.p.m. for 5 min, and the supernatant containing the cleaved protein was collected and protein concentration was determined using the Bradford assay (Thermo Scientific, Rockford, IL). Protein purity was assessed by running SDS–PAGE and Coomassie Blue staining.
The DNA fragments were cloned into pGEX-2T GST expression vector (GE Healthcare, Waukesha, WI). […] Protein concentration was then determined using Bradford assay and protein purity was assessed by SDS–PAGE and Coomassie Blue staining. […]

B1: CARM1 140–608: CARM1 140–608 lacks the first 140 residues encompassing the EVH1 domain (protein)
chain: RTEESSAVQYFQFYGYLSQQQNMMQDYVRTGTYQRAILQNHTDFKDKIVLDVGCGSGILSFFAAQAGARKIYAVEASTMAQHAEVLVKSNNLTDRIVVIPGKVEEVSLPEQVDIIISEPMGYMLFNERMLESYLHAKKYLKPSGNMFPTIGDVHLAPFTDEQLYMEQFTKANFWYQPSFHGVDLSALRGAAVDEYFRQPVVDTFDIRILMAKSVKYTVNFLEAKEGDLHRIEIPFKFHMLHSGLVHGLAFWFDVAFIGSIMTVWLSTAPTEPLTHWYQVRCLFQSPLFAKAGDTLSGTCLLIANKRQSYDISIVAQVDQTGSKSSNLLDLKNPFFRYTGTTPSPPPGSHYTSPSENMWNTGSTYNLSSGMAVAGMPTAYDLSSVIASGSSVGHNNLIPLANTGIVNHTHSRMGSIMSTGIVQGSSGAQGSGGGSTSAHYAVNSQFTMGGPAISMASPMSIPTNTMHYGS
modifications: left off: FLAG, end not stated, kept
notes: CARM1 140–608 lacks the first 140 residues encompassing the EVH1 domain
For the molecule B1, the “Co-precipitation of BAF155, MED12, PABP1, NCOA3 and TET2” value in assay [1] is reported as “substantially lower amounts of them were detected”. Besides, the “Methylation of GST fused MED12, BAF155 and PABP1 peptides and other protein substrates” value in assay [2] is recorded as “greatly reduced ability”.
